Experiments:
human CD40 = molecular target: T1, human CD40 (human, UniProt P25942 21-277); test: flow cytometry, Raji cells, Alexa488 anti-huIgG
T1 construct: on Daudi cells, Raji cells, human B cells or HEK-Blue CD40L cells; also called hu CD40; CD40 receptor
Procedure: CD40 positive cells (Raji cells) were detached from the culture bottle using Trypsin and were counted using a Casy cell counter. After pelleting at 4° C., the cells were resuspended in FACS Buffer (2.5% FCS in PBS), adjusted to 2.0E+06 cells/mL, and dispensed to 96-well PP V-bottom-plates (25 μL/well=5.0E+04Zellen/well).
The CD40 specific antibodies were adjusted to 20 μg/mL in FACS buffer, resulting in a final concentration of 10 μg/mL. […] were added to 25 μl cell suspension and incubated for 1 h at 4° C. The cells were then washed twice in FACS buffer. After washing, the cells were resuspended in 50 μL FACS-buffer containing secondary antibody (<huIgG>-Alexa488, c=10 μg/mL) and incubated 1 h at 4° C. The cells were then washed twice in FACS buffer and resuspended in 70 μl/well FACS buffer for measurement using a FACS Canto (BD, Pharmingen).

[1] = molecular target: T2, Human CD40 extracellular domain with C-terminal His-AviTag (human); test: SPR (Biacore), antibody captured by anti-human F(ab')2, CD40 ECD as analyte, 1:1 model
T2 construct: analyte in solution in the SPR assays; also called recombinant human CD40_ECD
T2 sequence (chain, as listed by the source limits assumed): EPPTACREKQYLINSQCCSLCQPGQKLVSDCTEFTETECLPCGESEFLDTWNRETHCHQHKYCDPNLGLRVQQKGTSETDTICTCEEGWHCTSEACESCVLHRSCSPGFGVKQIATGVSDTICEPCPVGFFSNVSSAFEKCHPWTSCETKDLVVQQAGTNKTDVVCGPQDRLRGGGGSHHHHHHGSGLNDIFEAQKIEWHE
Procedure: Around 12000 resonance units (RU) of the capturing system (10 μg/ml goat anti human F(ab)′₂; Order Code: 28958325; GE Healthcare Bio-Sciences AB, Sweden) were coupled on a CM5 chip (GE Healthcare BR-1005-30) at pH 5.0 by using an amine coupling kit supplied by the GE Healthcare. The sample and system buffer was PBS-T (10 mM phosphate buffered saline including 0.05% Tween20) pH 7.4. The flow cell was set to 25° C.—and the sample block set to 12° C.—and primed with running buffer twice. The antibody was captured by injecting a 50 nM solution for 30 sec at a flow of 5 μl/min. Association was measured by injection of human CD40 extra cellular domain or cynomolgus monkey CD40 extracellular domain in various concentrations in solution for 300 sec at a flow of 30 μl/min starting with 300 nM in 1:3 dilutions. The dissociation phase was monitored for up to 1200 sec and triggered by switching from the sample solution to running buffer. The surface was regenerated by 60 sec washing with a Glycine pH 2.1 solution at a flow rate of 30 μl/min. Bulk refractive index differences were corrected by subtracting the response obtained from a goat anti human F(ab′)₂ surface. Blank injections are also subtracted (=double referencing). For calculation of apparent KD and other kinetic parameters the Langmuir 1:1 model was used. The apparent Kd was calculated using the BIACORE® B4000 evaluation software (version 1.1).

T1 sequence (P25942 21-277 limits assumed): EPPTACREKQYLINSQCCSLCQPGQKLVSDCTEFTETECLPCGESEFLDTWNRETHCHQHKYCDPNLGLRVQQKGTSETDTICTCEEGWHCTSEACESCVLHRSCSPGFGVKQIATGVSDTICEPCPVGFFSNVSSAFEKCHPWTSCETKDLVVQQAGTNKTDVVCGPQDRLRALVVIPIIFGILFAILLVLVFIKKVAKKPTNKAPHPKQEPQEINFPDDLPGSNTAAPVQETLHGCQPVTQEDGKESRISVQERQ

EC50 (human CD40): 0.09 mg/L | Kd [1]: 8.7 nM | koff [1]: 0.0219 s⁻¹ | kon [1]: 2.53e+06 M⁻¹ s⁻¹
B1: P1AE0816 CD40 IgG1_LALAPG antibody (control) (antibody, V domains shown)
VH: QVQLVQSGAEVKKPGASVKVSCKASGYSFTGYYIHWVRQAPGQSLEWMGRVIPNNGGTSYNQKFQGRVTISVDKSISTAYMELSSLRSEDTAVYYCAREGIYWWGHGTTVTVSS
VL: DVVVTQSPLSLPVTPGEPASISCRSSQSLVHSNGNTFLHWYLQKPGQSPQLLIYTVSNRFSGVPDRFSGSGSGTDFTLKISRVEAEDVGVYFCSQTTHVPWTFGGGTKLEIKR
notes: huIgG1 LALA PG; control for acceptor framework 1
